We go through 3 molecules from US20180244777A1 (NUMAB THERAPEUTICS, published 2018).

Experiment [1] addresses T1, mouse IL23R (mouse, UniProt Q8K4B4 24-374, limits assumed).
T1 sequence (looked up): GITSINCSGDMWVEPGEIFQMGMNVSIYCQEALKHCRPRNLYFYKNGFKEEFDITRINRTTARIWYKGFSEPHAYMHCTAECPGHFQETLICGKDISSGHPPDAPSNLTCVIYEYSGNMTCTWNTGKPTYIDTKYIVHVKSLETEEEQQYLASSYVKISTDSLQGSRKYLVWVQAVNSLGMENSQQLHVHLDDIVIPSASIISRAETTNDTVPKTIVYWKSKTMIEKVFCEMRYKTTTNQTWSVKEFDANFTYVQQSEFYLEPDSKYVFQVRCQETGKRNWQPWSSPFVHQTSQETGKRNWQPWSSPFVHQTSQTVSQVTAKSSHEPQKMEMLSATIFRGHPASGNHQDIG
Briefly: SPR. (In general: In SPR one partner is held on a chip, and binding of the other changes the refractive index at the surface.)

Experiment [2] addresses T2, mouse CD3ε (mouse, UniProt P22646 22-108, limits assumed). The experiment in a line: SPR.
For experiment [3], the target named is T3, linear 15mer peptide derived from human CD3ε residues 2-16 (wild type of the substitution library, Set 1) (human).
T3 construct: Probed as a saturation mutagenesis library on a peptide array
T3 peptide: DGNEEMGGITQTPYK
The experiment in a line: 15mer peptide array ELISA. (An ELISA detects its analyte on a solid surface through an enzyme-linked reagent.)

Experiment [4] addresses T4, linear 15mer peptide derived from cynomolgus CD3ε residues 2-16 (wild type of the substitution library, Set 2) (cynomolgus).
T4 construct: Probed as a saturation mutagenesis library on a peptide array
T4 peptide: DGNEEMGSITQTPYQ
Briefly: 15mer peptide array ELISA.

Experiment [5] concerns the target T5, linear 15mer peptides derived from human CD3ε residues 5-20 (Set 3) (human).
T5 construct: also called peptides spanning residues 5-20
T5 peptide: EEMGGITQTPYKVSIS
Briefly: peptide array ELISA, Set 3. The method, then: (§1) The binding of the antibodies to each of the synthesized peptides was tested by ELISA. The peptide arrays were incubated with primary antibody solution (overnight at 4° C.). After washing, the peptide arrays were incubated with a 1/1000 dilution of an antibody peroxidase conjugate (SBA, cat.nr.2010-05) for one hour at 25° C. After washing, the peroxidase substrate 2,2′-azino-di-3-ethylbenzthiazoline sulfonate (ABTS) and 2 μl/ml of 3% H₂O₂ were added. After one hour, the color development was measured. The color development was quantified with a charge coupled device (CCD)—camera and an image processing system.

For experiment [6], the target named is T6, linear 15mer peptides derived from cynomolgus CD3ε residues 5-20 (Set 4) (cynomolgus).
T6 construct: also called peptides spanning residues 5-20
T6 peptide: EEMGSITQTPYQVSIS
The experiment in a line: peptide array ELISA, Set 4. The method, then:
as §1

Experiment [7] deals with T7, human CD3ε expressed on the cell surface of T cells (Jurkat cells; human CD8+ T cells) (human, UniProt P07766 23-207). Briefly: cell-based or functional assay.
Experiment [8] has as its target T7, human CD3ε expressed on the cell …. Briefly: cell-based ELISA on Jurkat cells. The method, then: (§2) Jurkat cells (clone E6-1), a human T cell line, were seeded at 300,000 cells/well in round bottom 96-well plates in 100 μl phosphate-buffered saline (PBS) containing 10% FBS. Five-fold serial dilutions of anti-CD3 rabbit monoclonal antibodies ranging from 90 nM to 0.0058 nM were added to the plates in 100 μl PBS containing 10% FBS. […] This secondary antibody was linked to the enzyme horseradish peroxidase (HRP). HRP activity was measured by addition of TMB substrate (3,3′,5,5′-tetramethylbenzidine, KPL, Cat. No. 53-00-00), which in a colorimetric reaction is processed by the HRP. The color intensity of the processed substrate is directly proportional to the amount of anti-CD3 antibody bound to Jurkat cells. To quantify color intensity, light absorbance (optical density) at the respective wave length was measured using a microtiter plate reader (Infinity reader M200 Pro, Tecan).
(§3) To correct for unspecific binding of the antibodies to unknown components presented on the cell surface of Jurkat cells, a CD3ε deficient derivative of the Jurkat T cell line (J.RT3-T3.5) was used. Binding of the monoclonal antibodies to this cell line was measured as described above for the Jurkat cells. For quantification of specific binding to Jurkat cells, the optical density for binding to the negative control was subtracted from the optical density for binding to Jurkat cells. Data were analyzed using a four-parameter logistic curve fit using the Softmax Data Analysis Software (Molecular Devices), and the molar concentration of anti-CD3 antibody required to reach 50% binding (EC₅₀, mid-OD of the standard curve) was derived from dose response curves.

For experiment [9], the target named is T8, cynomolgus monkey CD3ε expressed on the surface of HSC-F T cells (cynomolgus monkey, UniProt Q95LI5 22-198).
T8 construct: whole, on cells; also called cyno HSC-F T cells
T8 sequence (Q95LI5 22-198): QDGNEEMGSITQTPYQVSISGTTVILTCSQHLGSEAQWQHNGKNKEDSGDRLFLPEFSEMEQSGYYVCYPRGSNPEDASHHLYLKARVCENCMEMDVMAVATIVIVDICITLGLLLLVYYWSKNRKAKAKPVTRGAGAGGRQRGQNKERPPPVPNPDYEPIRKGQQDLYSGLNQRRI
Briefly: cell-based ELISA on cyno HSC-F T cells.

Experiment [10] addresses T9, cynomolgus monkey heterodimeric single-chain CD3εγ extracellular domain (cynomolgus monkey, UniProt Q95LI5 22-117; Q95LI7 23-113). The experiment in a line: SPR; ratio of the KDs for cyno and human single-chain CD3εγ.
Experiment [11] has as its target T9, cynomolgus monkey heterodimeric …. Briefly: SPR, rabbit IgG captured, cyno single-chain CD3εγ ECD injected.
Experiment [12] has the same target. Described as above. This is another data set of the same source.
In experiment [13] the target is T10, human heterodimeric single-chain CD3εγ extracellular domain (human, UniProt P07766 23-126; P09693 23-116).
T10 construct: extracellular domain; Produced in-house; also called scCD3γε; human CD3ge
Briefly: SPR, rabbit IgG captured, human single-chain CD3εγ ECD injected. The method, then: (§4) Binding affinities of monoclonal rabbit anti-CD3 antibodies were measured by surface plasmon resonance (SPR) using a MASS-1 SPR instrument (Sierra Sensors). […] Rabbit monoclonal antibodies were captured by the immobilized anti-rabbit IgG antibody. Two-fold serial dilutions of human heterodimeric single-chain CD3εγ extracellular domain (produced in-house) ranging from 90 to 2.81 nM were injected into the flow cells for 3 min and dissociation of the protein from the IgG captured on the sensor chip was allowed to proceed for 5 min. After each injection cycle, surfaces were regenerated with two injections of 10 mM glycine-HCl. The apparent dissociation (kd) and association (ka) rate constants and the apparent dissociation equilibrium constant (KD) were calculated with the MASS-1 analysis software (Analyzer, Sierra Sensors) using one-to-one Langmuir binding model.

Experiment [14] addresses T10, human heterodimeric single-chain CD3εγ …. The description is as above. The method, then: as §4
This is another data set of the same source.

The target in experiment [15] is T7, human CD3ε expressed on the cell …. The experiment in a line: cell-based ELISA on Jurkat cells, CD3ε-deficient Jurkat subtracted. The method, then: as §2, §3
Experiment [16] addresses T1, mouse IL23R. Briefly: SPR. This is another data set of the same source.
Experiment [17] addresses T2, mouse CD3ε. Briefly: SPR. The source holds these as a separate data set.

Where two headings read alike, the source gives them in different places.

T2 sequence (P22646 22-108 limits assumed): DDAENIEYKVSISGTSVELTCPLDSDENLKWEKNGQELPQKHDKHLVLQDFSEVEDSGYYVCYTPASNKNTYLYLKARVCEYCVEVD
T9 sequence (Q95LI7 other isoform, or with tags, fused parts or gaps): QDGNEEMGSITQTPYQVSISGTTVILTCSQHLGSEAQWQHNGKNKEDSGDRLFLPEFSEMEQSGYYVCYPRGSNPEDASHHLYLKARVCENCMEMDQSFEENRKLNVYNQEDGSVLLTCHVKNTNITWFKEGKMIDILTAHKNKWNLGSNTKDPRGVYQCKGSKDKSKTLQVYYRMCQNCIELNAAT

B1: PRO387 (bispecific antibody)
chain: DIQMTQSPSSLSASVGDRVTITCQASENIYSFLAWYQQKPGKAPKLLIYSASKLAAGVPSRFSGSGSGTDFTLTISSLQPEDFATYYCQQTNRYSNPDIYNVFGQGTKLTVLGGGGGSEVQLVESGGGLVQPGKSLKLSCEASGFTFSGYGMHWVRQAPGRGLESVAYITSSSINIKYADAVKGRFTVSRDNAKNLLFLQMNILKSEDTAMYYCARFDWDKNYWGQGTMVTVSSGGGGSGGGGSGGGGSGGGGSDIQMTQSPSSLPASLGDRVTINCQASQDISNYLNWYQQKPGKAPKLLIYYTNKLADGVPSRFSGSGSGRDSSFTISSLESEDIGSYYCQQYYNYPWTFGPGTKLEIKRGGGGSEVQLVESGGGLVQPGGSLRLSCAASGIDFNSNYYMCWVRQAPGKGLEWIGCIYVGSHVNTYYANWAKGRFTISRDNSKNTVYLQMNSLRAEDTAVYYCATSGSSVLYFKFWGQGTLVTVSS
notes: scDb VLA-L1-VHB-L2-VLB-L3-VHA, A = anti-IL23R, B = anti-mouse CD3ε 2C11; also called bispecific single-chain diabody surrogate (scDb); anti-IL23R 14-11-D07-sc01 × anti-mCD3 2C11
What is called Kd is the free concentration of one partner at which half of the binding sites on the other are occupied at equilibrium, for simple one-to-one binding. A word on the koff: it is the rate constant with which the complex falls apart. In general, kon refers to the rate constant with which the complex forms. In the experiment with mouse IL23R [1], B1 showed a Kd of 4.66 nM, a dissociation rate constant (koff) of 0.00326 s⁻¹ and a kon of 701000 M⁻¹ s⁻¹. In the experiment with mouse CD3ε [2], this molecule gave a Kd of 9.11 nM, a dissociation rate constant (koff) of 0.00213 s⁻¹ and a kon of 233000 M⁻¹ s⁻¹.

B2: clone-02 (antibody, V domains shown)
VH: QSLEESGGRLVTPGTPLTLTCTVSGFPLSAYAMIWVRQAPGKGLEWIGMIIRSGTVYYANWAKGRFTISKTSTTVDLKITSPTTEDTATYFCARRHYNADGYPIGIGDLWGPGTLVTVSS
VL: AQVLTQTPSSVSAVVGGTVTISCQSSESVYSNNRLSWFQQKPGQPPKLLIYSASTLASGVPSRFKGSGSGTQFTLTITDLECDDAATYFCQGEFSCSSVDCFSFGGGTEVVVKG
notes: Recombinant rabbit IgG; also called Clone 2
In general, EC50 refers to the concentration giving half of the maximal effect. As to B2, the binding result is reported as “binds” in experiment [3], “binds” in experiment [4], “no binding” in experiment [5] and “no binding” in experiment [6]. Moreover, in [7], the “Fold increase in CD69 expression [MFI normalized to neg. ctrl.], 1.25 µg/ml anti-CD3 IgG” value stood at 3.3 fold. The “Fold increase in CD69 expression [MFI normalized to neg. ctrl.], 5 µg/ml anti-CD3 IgG” value in experiment [7] is 4.6 fold. Besides, in [7], the “Fold increase in CD69 expression [MFI normalized to neg. ctrl.], 20 µg/ml anti-CD3 IgG” value stood at 7.4 fold. The figures for the half-maximal effective concentration (EC50) in experiment [8], in [9] and in experiment [15] were 0.71 nM, 3.82 nM and 0.71 nM, respectively. In experiment [10], the “KD (human)/KD (cyno)” value was found to be 13. Further, the dissociation constant (Kd) is 3.86 nM in experiment [11], 3.86 nM in experiment [12], 0.304 nM in experiment [13] and 0.304 nM in [14]. The koff in [12] was found to be 0.00258 s⁻¹; in experiment [14] it was 0.000264 s⁻¹. The kon in experiment [12] was 668000 M⁻¹ s⁻¹; in [14] it was 869000 M⁻¹ s⁻¹.

B3: PRO386 (bispecific antibody)
light: DIQMTQSPSSLPASLGDRVTINCQASQDISNYLNWYQQKPGKAPKLLIYYTNKLADGVPSRFSGSGSGRDSSFTISSLESEDIGSYYCQQYYNYPWTFGPGTKLEIKRRTVAAPSVFIFPPSDEQLKSGTASVVCLLNNFYPREAKVQWKVDNALQSGNSQESVTEQDSKDSTYSLSSTLTLSKADYEKHKVYACEVTHQGLSSPVTKSFNRGECGGGGSGGGGSHMDIQMTQSPSSLSASVGDRVTITCQASENIYSFLAWYQQKPGKAPKLLIYSASKLAAGVPSRFSGSGSGTDFTLTISSLQPEDFATYYCQQTNRYSNPDIYNVFGQGTKLTVLGGGGGSGGGGSGGGGSGGGGSEVQLVESGGGLVQPGGSLRLSCAASGIDFNSNYYMCWVRQAPGKGLEWIGCIYVGSHVNTYYANWAKGRFTISRDNSKNTVYLQMNSLRAEDTAVYYCATSGSSVLYFKFWGQGTLVTVSS
heavy: EVQLVESGGGLVQPGKSLKLSCEASGFTFSGYGMHWVRQAPGRGLESVAYITSSSINIKYADAVKGRFTVSRDNAKNLLFLQMNILKSEDTAMYYCARFDWDKNYWGQGTMVTVSSASTKGPSVFPLAPSSKSTSGGTAALGCLVKDYFPEPVTVSWNSGALTSGVHTFPAVLQSSGLYSLSSVVTVPSSSLGTQTYICNVNHKPSNTKVDKKVEPKSCGGGGSGGGGSHMDIQMTQSPSSLSASVGDRVTITCQASENIYSFLAWYQQKPGKAPKLLIYSASKLAAGVPSRFSGSGSGTDFTLTISSLQPEDFATYYCQQTNRYSNPDIYNVFGQGTKLTVLGGGGGSGGGGSGGGGSGGGGSEVQLVESGGGLVQPGGSLRLSCAASGIDFNSNYYMCWVRQAPGKGLEWIGCIYVGSHVNTYYANWAKGRFTISRDNSKNTVYLQMNSLRAEDTAVYYCATSGSSVLYFKFWGQGTLVTVSS
notes: Heterodimer; 2C11 Fab with an anti-IL23R scFv 14-11-D07-sc01 on the C-terminus of each chain; also called Tribody; bispecific, trivalent Fab-scFv fusion surrogate molecule
As for B3, in the experiment with mouse IL23R [16], the Kd was determined as 0.583 nM, the koff was found to be 0.000533 s⁻¹ and the kon was 915000 M⁻¹ s⁻¹. In the experiment with mouse CD3ε [17], this molecule displayed a Kd of 11.5 nM, an off-rate (koff) of 0.00196 s⁻¹ and an association rate constant (kon) of 171000 M⁻¹ s⁻¹.
